T1: recombinant chimpanzee PSMA extracellular domain (ECD) protein (Pan troglodytes, UniProt Q04609 44-750 (human entry))
T1 construct: also called Chimp PSMA ECD; PSMG8
T1 chain: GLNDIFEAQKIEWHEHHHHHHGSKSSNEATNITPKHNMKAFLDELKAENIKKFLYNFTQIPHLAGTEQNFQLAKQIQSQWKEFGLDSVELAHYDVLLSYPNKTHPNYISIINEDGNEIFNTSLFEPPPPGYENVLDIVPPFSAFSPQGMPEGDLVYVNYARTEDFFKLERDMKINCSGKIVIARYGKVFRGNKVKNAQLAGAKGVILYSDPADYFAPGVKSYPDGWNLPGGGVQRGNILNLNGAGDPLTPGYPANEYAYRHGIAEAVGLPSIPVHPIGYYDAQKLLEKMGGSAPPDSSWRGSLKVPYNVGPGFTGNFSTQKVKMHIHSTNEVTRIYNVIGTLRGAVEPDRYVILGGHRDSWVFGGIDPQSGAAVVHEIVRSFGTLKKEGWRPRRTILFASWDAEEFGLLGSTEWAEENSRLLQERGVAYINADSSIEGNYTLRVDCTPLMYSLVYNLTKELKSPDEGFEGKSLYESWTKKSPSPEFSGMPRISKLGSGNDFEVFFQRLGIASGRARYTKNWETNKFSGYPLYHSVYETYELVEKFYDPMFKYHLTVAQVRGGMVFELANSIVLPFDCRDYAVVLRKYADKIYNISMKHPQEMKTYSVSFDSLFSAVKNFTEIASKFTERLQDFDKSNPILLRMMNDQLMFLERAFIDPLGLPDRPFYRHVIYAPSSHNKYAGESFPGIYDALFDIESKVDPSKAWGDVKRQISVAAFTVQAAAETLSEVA

T2: chimpanzee PSMA, full length (Pan troglodytes, UniProt Q04609 1-750 (human entry))
T2 construct: On transfected HEK293F cells; also called chimp PSMA; H2Q3K5_PANTR
T2 chain: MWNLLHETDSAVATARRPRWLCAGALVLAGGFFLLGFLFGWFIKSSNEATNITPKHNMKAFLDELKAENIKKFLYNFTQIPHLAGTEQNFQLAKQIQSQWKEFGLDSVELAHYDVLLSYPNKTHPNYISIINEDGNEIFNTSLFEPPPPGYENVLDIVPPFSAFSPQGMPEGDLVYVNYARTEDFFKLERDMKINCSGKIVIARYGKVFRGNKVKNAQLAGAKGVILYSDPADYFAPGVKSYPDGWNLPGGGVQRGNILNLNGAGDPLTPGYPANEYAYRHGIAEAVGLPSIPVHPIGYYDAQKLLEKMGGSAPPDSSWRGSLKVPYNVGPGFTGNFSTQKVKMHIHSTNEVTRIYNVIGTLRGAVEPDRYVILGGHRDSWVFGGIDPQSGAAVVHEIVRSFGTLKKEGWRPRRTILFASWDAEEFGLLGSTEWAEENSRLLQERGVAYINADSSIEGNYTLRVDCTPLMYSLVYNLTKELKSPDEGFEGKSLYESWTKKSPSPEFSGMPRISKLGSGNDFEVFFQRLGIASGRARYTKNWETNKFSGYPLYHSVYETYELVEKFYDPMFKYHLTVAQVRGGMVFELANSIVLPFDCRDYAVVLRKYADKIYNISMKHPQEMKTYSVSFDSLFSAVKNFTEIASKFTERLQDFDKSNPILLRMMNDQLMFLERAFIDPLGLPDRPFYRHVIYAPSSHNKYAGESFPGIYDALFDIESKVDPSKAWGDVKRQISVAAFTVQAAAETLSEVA

B1: PS3B27 (bispecific antibody, human IgG4 S228P, kappa, lambda, F234A L235A)
heavy 1: not shown
light 1: not shown
heavy 2: EVQLVESGGGLVQPGGSLRLSCAASGFTFNTYAMNWVRQAPGKGLEWVARIRSKYNNYATYYAASVKGRFTISRDDSKNSLYLQMNSLKTEDTAVYYCARHGNFGNSYVSWFAYWGQGTLVTVSSASTKGPSVFPLAPCSRSTSESTAALGCLVKDYFPEPVTVSWNSGALTSGVHTFPAVLQSSGLYSLSSVVTVPSSSLGTKTYTCNVDHKPSNTKVDKRVESKYGPPCPPCPAPEAAGGPSVFLFPPKPKDTLMISRTPEVTCVVVDVSQEDPEVQFNWYVDGVEVHNAKTKPREEQFNSTYRVVSVLTVLHQDWLNGKEYKCKVSNKGLPSSIEKTISKAKGQPREPQVYTLPPSQEEMTKNQVSLTCLVKGFYPSDIAVEWESNGQPENNYKTTPPVLDSDGSFLLYSKLTVDKSRWQEGNVFSCSVMHEALHNHYTQKSLSLSLGK
light 2: QTVVTQEPSLTVSPGGTVTLTCRSSTGAVTTSNYANWVQQKPGQAPRGLIGGTNKRAPGTPARFSGSLLGGKAALTLSGVQPEDEAEYYCALWYSNLWVFGGGTKLTVLGQPKAAPSVTLFPPSSEELQANKATLVCLISDFYPGAVTVAWKADSSPVKAGVETTTPSKQSNNKYAASSYLSLTPEQWKSHRSYSCQVTHEGSTVEKTVAPTECS
notes: IgG4 PAA; PSMA arm chains first, then CD3 arm (F405L, R409K); also called PSMB127 x CD3B219; PS2B27
B2: PS3B22 (bispecific antibody, human IgG4 S228P, kappa, lambda, F234A L235A)
heavy 1: not shown
light 1: DIQMTQSPSSLSASVGDRVTITCRASQSIDRWLNWYQQKPGKAPKLLIYAASSLQSGVPSRFSGSGSGTDFTLTISSLQPEDFATYYCQQSPRYPLTFGQGTKVEIKRTVAAPSVFIFPPSDEQLKSGTASVVCLLNNFYPREAKVQWKVDNALQSGNSQESVTEQDSKDSTYSLSSTLTLSKADYEKHKVYACEVTHQGLSSPVTKSFNRGEC
heavy 2: B1 heavy 2
light 2: B1 light 2
notes: IgG4 PAA; PSMA arm chains first, then CD3 arm (F405L, R409K); also called PSMB122 x CD3B219; PSB22
B3: PS3B28 (bispecific antibody, human IgG4 S228P, kappa, lambda, F234A L235A)
heavy 1: not shown
light 1: not shown
heavy 2: B1 heavy 2
light 2: B1 light 2
notes: IgG4 PAA; PSMA arm chains first, then CD3 arm (F405L, R409K); also called PSMB128 x CD3B219
B4: PS3B24 (bispecific antibody, human IgG4 S228P, kappa, lambda, F234A L235A)
heavy 1: not shown
light 1: not shown
heavy 2: B1 heavy 2
light 2: B1 light 2
notes: IgG4 PAA; PSMA arm chains first, then CD3 arm (F405L, R409K); also called PSMB124 x CD3B219
B5: PS3B30 (bispecific antibody, human IgG4 S228P, kappa, lambda, F234A L235A)
heavy 1: not shown
light 1: not shown
heavy 2: B1 heavy 2
light 2: B1 light 2
notes: IgG4 PAA; PSMA arm chains first, then CD3 arm (F405L, R409K); also called PSMB130 x CD3B219
B6: PS3B19 (bispecific antibody, human IgG4 S228P, kappa, lambda, F234A L235A)
heavy 1: not shown
light 1: not shown
heavy 2: B1 heavy 2
light 2: B1 light 2
notes: IgG4 PAA; PSMA arm chains first, then CD3 arm (F405L, R409K); also called PSMB119 x CD3B219
B7: PS3B23 (bispecific antibody, human IgG4 S228P, kappa, lambda, F234A L235A)
heavy 1: not shown
light 1: not shown
heavy 2: B1 heavy 2
light 2: B1 light 2
notes: IgG4 PAA; PSMA arm chains first, then CD3 arm (F405L, R409K); also called PSMB123 x CD3B219
B8: PS3B25 (bispecific antibody, human IgG4 S228P, kappa, lambda, F234A L235A)
heavy 1: not shown
light 1: not shown
heavy 2: B1 heavy 2
light 2: B1 light 2
notes: IgG4 PAA; also called PSMB87 x CD3B219
B9: PS3B20 (bispecific antibody, human IgG4 S228P, kappa, lambda, F234A L235A)
heavy 1: not shown
light 1: not shown
heavy 2: B1 heavy 2
light 2: B1 light 2
notes: IgG4 PAA; PSMA arm chains first, then CD3 arm (F405L, R409K); also called PSMB120 x CD3B219

Tests used:
[1] = molecular target: T1, recombinant chimpanzee PSMA …; assay: SPR ProteOn
[2] = molecular target: T1, recombinant chimpanzee PSMA …; assay: SPR ProteOn, bsAb captured by anti-Fc
Protocol: The interactions of PSMA×CD3 bispecific mAbs with target (recombinant Chimp, PSMA) were studied by Surface Plasmon Resonance (SPR) using a ProteOn XPR36 system (BioRad). […] Approximately 4400 RU (response units) of anti-Human IgG Fc antibodies were immobilized. The kinetic experiments were performed at 25° C. in running buffer (DPBS+0.03% P20+100 μg/ml BSA). […] The association phase was monitored for 3 minutes at 50 μL/min, then followed by 15 minutes of buffer flow (dissociation phase). The chip surface was regenerated with two 18 second pulses of 100 mM Phosphoric acid (H₃PO₄, Sigma, cat #7961) at 100 μL/min.
The collected data were processed using ProteOn Manager software. First, the data was corrected for background using inter-spots. Then, double reference subtraction of the data was performed by using the buffer injection for analyte injections. The kinetic analysis of the data was performed using a Langmuir 1:1 binding model.

[3] = molecular target: T2, chimpanzee PSMA, full length; assay: FACS, whole cell binding, chimp PSMA HEK
Protocol: (§1) PSMA×CD3 bispecific antibodies were tested for binding to PSMA positive cell lines LNCAP, human PSMA-HEK, Chimpanzee-PSMA-HEK and Cynomolgous monkey PSMA-HEK. To assess the binding capabilities of the PSMA bispecific antibodies, the cell-binding assay was utilized (described previously). Briefly, PSMA expressing tumor cells are bound by bispecific antibodies at known concentrations and the bound antibody is detected by an anti-human kappa light chain PE conjugated detection reagent (Invitrogen). The Mean Fluorescents Intensity (MFI) is the measure of bound bispecific antibody. The MFI is converted to a relative EC₅₀. EC₅₀ is a commonly used dose-response curve, where the half maximal effective concentration or the EC₅₀ point is defined as the inflection point of the curve. EC₅₀ s were determined by measuring cell bound bispecific and known concentrations. […] The dose response curves were then diluted down to that of background or no bispecific binding. The inflection point of this curve reflects the EC₅₀ point. The calculated EC₅₀ is determined by taking the ug/ml amount of bispecific antibody at the EC₅₀ point and converting it to a molarity value based on the MW of the bispecific antibody. Bispecific antibodies were normalized for protein concentration and then incubated with the same number of cells expressing either human or cyno PSMA. The MFI at each concentration was collected by flow cytometry and plotted as a function of concentration. Data was transformed via log 10 and then plotted. Nonlinear regression of binding curves was done to determine EC₅₀ s. These relative values were used for ranking PSMA binding to target cells.

[4] = molecular target: T3, human PSMA (prostate specific membrane antigen), full length (human, UniProt Q04609 1-750); assay: FACS, whole cell binding, LNCaP; calculated EC50
T3 construct: On LNCaP or C4-2B cells (endogenous) or transduced HEK293F cells; also called FOLH1_HUMAN; hPSMA
Protocol: as §1

Binder	EC50 [3]	EC50 [4]	also measured
B1	3.24 µg/mL	14.6 nM	Kd [1]: 7.48 nM; koff [1]: 0.00156 s⁻¹; kon [1]: 208000 M⁻¹ s⁻¹; Kd [2]: 7.48 nM; koff [2]: 0.00156 s⁻¹; kon [2]: 208000 M⁻¹ s⁻¹
B2	3.02 µg/mL	18.3 nM	
B3	1.01 µg/mL	8.1 nM	
B4	1.1 µg/mL		
B5	3.29 µg/mL	8.5 nM	
B6	5.1 µg/mL		
B7	0.88 µg/mL		
B8			Kd [1]: 3.54 nM; koff [1]: 0.00099 s⁻¹; kon [1]: 281000 M⁻¹ s⁻¹; Kd [2]: 3.54 nM; koff [2]: 0.00099 s⁻¹; kon [2]: 281000 M⁻¹ s⁻¹
B9	3.33 µg/mL	864 nM	

Source: US20200024360A1 (Janssen / Centocor, published 2020)
